Experimental data: US20120301476A1 (TORAY INDUSTRIES, published 2012)

How the values were obtained:
[1] = target: T1, peptide of SEQ ID NO: 69 (partial sequence in the polypeptide of SEQ ID NO: 37) (human); test: ELISA on immobilised synthetic peptides
T1 peptide: QQPQAASPSVPE
Method: Each peptide was dissolved in 0.1M sodium carbonate buffer (pH 9.6) at a concentration of 30 μg/ml, added to a 96-well plate (Nunc, Product No. 436006) at 100 μl per well, and then left to stand at 4° C. overnight. The solution was discarded, 10 mM ethanolamine/0.1M sodium carbonate buffer (PH 9.6) was added at 200 μl per well, and then the plate was left to stand at room temperature for 1 hour. The solution was discarded, the plate was washed twice with PBS (PBST) containing 0.5% Tween20, so that the plate with each peptide immobilized thereto was prepared.
A cell culture supernatant containing the human-chicken chimeric monoclonal antibody (#1) and the mouse monoclonal antibodies (#2, #3, #4, #5, and #6) obtained in Example 4 (2) was added to the plate at 50 μl per well. After 1 hour of shaking at room temperature, the solution was removed, and then the plate was washed three times with PBST. Next, an HRP-labeled anti-human IgG (Invitrogen) antibody diluted 3000- to 4000-fold with PBST (a secondary antibody solution) was added to each well of the human-chicken chimeric monoclonal antibody and an HRP-labeled anti-mouse IgG (Invitrogen) antibody diluted 3000- to 4000-fold with PBST (a secondary antibody solution) was added to each well of the mouse monoclonal antibody, at 50 μl per well, and then the solution was removed, followed by six times of washing with PBST.
A TMB substrate solution (Thermo) was added at 100 μl per well, and the plate was left to stand for 15 to 30 minutes for coloring reaction. After color development, 1N sulfuric acid was added at 100 μl per well to stop the reaction and then absorbances at 450 nm and 595 nm were measured using an absorption spectrometer. As a result, the polypeptide of SEQ ID NO: 37 was identified as a CAPRIN-1 partial sequence that is recognized by all of the anti-CAPRIN-1 monoclonal antibodies #1 to #6. Furthermore, the peptide of SEQ ID NO: 69 was identified as a partial sequence in the above polypeptide of SEQ ID NO: 37, which is recognized by the monoclonal antibodies #1, #4, and #5. […]

[2] = target: T2, human CAPRIN-1 protein on the cell surfaces of human cancer cell lines and in human cancer tissues (human, UniProt Q14444 2-709); test: cell-based or functional assay
T2 sequence (looked up): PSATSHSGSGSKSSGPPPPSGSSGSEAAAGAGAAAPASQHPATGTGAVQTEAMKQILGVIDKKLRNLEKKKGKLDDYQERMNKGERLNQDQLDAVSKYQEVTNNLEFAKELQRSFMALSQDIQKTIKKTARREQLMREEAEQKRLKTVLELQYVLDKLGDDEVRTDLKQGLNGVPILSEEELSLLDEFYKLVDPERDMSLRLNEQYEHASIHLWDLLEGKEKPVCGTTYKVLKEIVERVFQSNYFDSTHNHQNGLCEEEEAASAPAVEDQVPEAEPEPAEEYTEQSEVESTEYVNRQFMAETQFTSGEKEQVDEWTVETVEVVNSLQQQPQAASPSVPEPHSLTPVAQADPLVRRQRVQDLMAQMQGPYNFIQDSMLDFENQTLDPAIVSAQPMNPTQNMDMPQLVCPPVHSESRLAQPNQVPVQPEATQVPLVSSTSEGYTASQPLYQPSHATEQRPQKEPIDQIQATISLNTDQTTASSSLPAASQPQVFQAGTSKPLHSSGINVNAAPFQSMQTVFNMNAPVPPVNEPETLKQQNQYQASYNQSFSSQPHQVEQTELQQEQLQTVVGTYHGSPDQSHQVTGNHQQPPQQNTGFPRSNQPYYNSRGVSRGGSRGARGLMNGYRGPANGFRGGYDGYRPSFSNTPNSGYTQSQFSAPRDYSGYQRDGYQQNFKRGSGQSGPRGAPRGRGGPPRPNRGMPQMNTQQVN

- binding result [1]: binds
B1: human-chicken chimeric antibody #1 having the chicken monoclonal antibody #1 variable region (antibody, V domains shown)
VH: AVTLDESGGGLQMSRGGLSLVCKASGFDFSSYQMNWIRQAPGKGLEFVAAINKFGNSTGHGAAVKGRVTISRDNGQSTVRLQLNNLRAEDTAIYFCTKHAYGYCGSGTWCAAGEIDAWGHGTEVIVSS
VL: QAASTQPSSVSANPGETVEITCSGGGSYSYGWFQQKSPGSAPVTVIYYNNKRPSDIPSRFSGSKSGSTGTLTITGVQADDEAVYYCGSGDSTDTAVFGAGTTLTVLG
notes: also called anti-CAPRIN-1 antibody #1; human-chicken chimeric monoclonal antibody (#1); not shown: human IgG1 H-chain constant region; human IgG1 L-chain constant region
- cytotoxic activity (ADCC) against A549 [2]: 36.3%
- cytotoxic activity (ADCC) against ACHN [2]: 26%
- cytotoxic activity (ADCC) against AML5 [2]: 13.1%
- cytotoxic activity (ADCC) against Caki-1 [2]: 27%
- cytotoxic activity (ADCC) against KYSE180 [2]: 27.6%
- cytotoxic activity (ADCC) against MDA-MB-157 [2]: 40%
- cytotoxic activity (ADCC) against MNK28 [2]: 21.7%
- cytotoxic activity (ADCC) against MNK45 [2]: 25.3%
- cytotoxic activity (ADCC) against QG56 [2]: 33%
- cytotoxic activity (ADCC) against Ramos [2]: 11.7%
- cytotoxic activity (ADCC) against SW480 [2]: 26.9%
- cytotoxic activity (ADCC) against SW756 [2]: 29.7%
- cytotoxic activity (ADCC) against T24 [2]: 25.6%
- cytotoxic activity (ADCC) against T98G [2]: 18%
- cytotoxic activity (ADCC) against U373 [2]: 23.3%
